The target of test [1] is T1, carcinoembryonic antigen (UniProt P06731 35-685, limits assumed).
T1 construct: Antigen preparation used in the SPR assay; also called CEA
T1 sequence (looked up): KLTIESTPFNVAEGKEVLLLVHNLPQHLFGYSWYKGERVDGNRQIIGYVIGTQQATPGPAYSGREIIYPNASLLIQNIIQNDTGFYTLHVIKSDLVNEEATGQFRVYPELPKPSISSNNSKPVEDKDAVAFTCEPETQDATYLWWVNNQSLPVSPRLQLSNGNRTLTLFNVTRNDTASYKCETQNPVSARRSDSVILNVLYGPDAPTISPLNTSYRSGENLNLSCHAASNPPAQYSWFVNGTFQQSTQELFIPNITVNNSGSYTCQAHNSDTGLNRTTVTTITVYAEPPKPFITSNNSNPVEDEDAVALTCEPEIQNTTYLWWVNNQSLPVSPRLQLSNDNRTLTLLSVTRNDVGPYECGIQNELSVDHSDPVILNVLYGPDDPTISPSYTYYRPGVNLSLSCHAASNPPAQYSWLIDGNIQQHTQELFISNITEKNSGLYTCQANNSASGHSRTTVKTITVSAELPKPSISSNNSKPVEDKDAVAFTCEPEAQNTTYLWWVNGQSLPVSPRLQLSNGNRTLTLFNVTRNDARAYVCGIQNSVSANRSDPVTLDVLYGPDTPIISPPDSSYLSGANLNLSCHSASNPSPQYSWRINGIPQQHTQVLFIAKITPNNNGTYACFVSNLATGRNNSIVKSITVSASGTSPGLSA
Briefly: SPR, BIACORE 3000, CEA thiol-coupled to CM5 chip, antibody in flow at 50 nM to 1.5 nM; chimeric antibody of Example 1, unlabelled. The procedure:
(§1) The affinity of the fluorescent conjugate as prepared in Example 3 to the target carcinoembryonic antigen was also determined, using surface plasmon resonance (SPR) on a BIACORE 3000 device. Carcinoembryonic antigen was coupled to a CM5 chip via the thiol groups (Surface Thiol Coupling GE healthcare; Instruction 22-0618-10AB). Association and dissociation rates were measured using in the flow 6 different concentrations (from 50 nM to 1.5 nM) of the chimeric monoclonal antibody of Example 1, the monoclonal antibody m511 (the original murine antibody from which the variable regions the chimeric monoclonal antibody of Ex. 1 is based) and fluorescent conjugate. Data acquisition and parameters calculations were performed using the Bia software and Bia evaluation programs.
In general terms: In SPR one partner is held on a chip, and binding of the other changes the refractive index at the surface.

For test [2], the target named is T1, carcinoembryonic antigen. Kind of test: SPR, BIACORE 3000, CEA thiol-coupled to CM5 chip, antibody in flow at 50 nM to 1.5 nM; parental murine antibody m511. The method, then:
as §1

Test [3] deals with T1, carcinoembryonic antigen. Kind of test: SPR, BIACORE 3000, CEA thiol-coupled to CM5 chip, conjugate in flow at 50 nM to 1.5 nM; chimeric antibody labelled with the near-infrared dye (conjugate of Ex. 3). The method, then:
as §1

B1: anti-CEA chimeric monoclonal antibody of Example 1 (antibody, human IgG1, V domains shown)
VH: DVQLVESGGGLVQPGGSRKLSCAASGFTFSNFGMHWIRQAPEKGLEWVAYISGGSSTIYFADTLKGRFTISRDNPKNTLFLQMTSLRSEDTAIYYCARDYYINNYWYFDVWGAGTTVTVSS
VL: DIVMTQSQKFMSTSVGDRVSITCKASQNVRSAVAWYQQTPGQSPKALIYLASNRYTGVPDRFTGSGSGTDFTLTISNVQSEDLADYFCLQHWNYPLTFGGGTKLELK
notes: Expressed in CHO cells; 148.6 kDa by MALDI-TOF; also called chimeric mAb directed against CEA; anti-CEA chimeric mAb
One may read the Kd as the constant that tells how readily two partners part at equilibrium. B1 showed a Kd in the test with carcinoembryonic antigen [1] of 32.7 pM.

B2: monoclonal antibody m511 (antibody, V domains shown)
VH: B1 VH
VL: B1 VL
notes: Murine parental antibody; also called parental murine 511 antibody; original murine antibody
Consider B2, for which the Kd with carcinoembryonic antigen [2] was 38.2 pM.

B3: fluorescent conjugate of Example 3 (anti-CEA chimeric mAb of Example 1 coupled to the fluorochrome of Formula (IV)) (antibody, V domains shown)
VH: B1 VH
VL: B1 VL
modifications: cyanine fluorochrome (NHS ester of Formula (IV), giving moiety F of formula (II)) coupled to the antibody; average fluorochrome/antibody molar ratio 1.5-1.6; sites of coupling not stated
notes: In the tissue cross-reactivity study the conjugate was also biotin labelled; also called conjugate of Ex. 3
The molecule B3 had a Kd in the test with carcinoembryonic antigen [3] of 32.1 pM.

Source of the values: patent US20180126009A1 (SURGIMAB S A S, published 2018).
